Reference: FireProtDB (doi:10.1002/pro.5560010709)

B1: Ribonuclease pancreatic, P61823 (parent)
chain: MALKSLVLLSLLVLVLLLVRVQPSLGKETAAAKFERQHMDSSTSAASSSNYCNQMMKSRNLTKDRCKPVNTFVHESLADVQAVCSQKNVACKNGQTNCYQSYSTMSITDCRETGSSKYPNCAYKTTQANKHIIVACEGNPYVPVHFDASV

Variants of: B1
Conditions: Bos taurus, pH 4.2, Thermal, CD, Sodium acetate 0.01 M, NaCl 0.1 M, reversible: yes, structure 1RTB, whole UniProt chain shown; for ddG of mutation (higher = less stable) / heat capacity change of unfolding: 56.2 °C

Row | Variant | ddG of mutation (higher = less stable) [kcal/mol] | heat capacity change of unfolding [kcal/mol/K] | Tm [°C] | change of melting temperature, mutant - wild type (higher = more stable) [°C]
1 | P119A | 2.7 | 2.2 | 46.5 | -9.5
2 | P119S | 2.1 | 2.2 | 47.5 | -8.5
3 | P140A | 3.2 | 2.2 | 45.5 | -10.5
4 | P140G | 2.8 | 2.2 | 45.5 | -10.5
5 | P119A P140G | 4.2 | 2.2 | 36 | -20
